The results in this text go back to the Immune Epitope Database (IEDB).

One test deals with HLA-B*45:06. In words: IEDB peptide-MHC binding, purified MHC/competitive/fluorescence; filed as Kd, often an IC50 or EC50 that approximates it; ≥ and ≤ were set here for values at or beyond the usual limits of such assays. The note with it: source organism: Crocodilepox virus.
In the next test the target is HLA-A*32:07. The description is as above. To be noted: source organism: Crocodilepox virus.
For another test, the target named is HLA-A*29:02. The description is as above. The note with it: source organism: Crocodilepox virus.
A further test has as its target HLA-B*15:42. The test is described as above. To be noted: source organism: Crocodilepox virus.
The target in a further test is HLA-B*83:01. The test is described as above. The note with it: source organism: Crocodilepox virus.
In a further test the target is HLA-B*15:09. Described as above. To be noted: source organism: Bacillus anthracis str. A0488.
The next test deals with HLA-B*39:01. The description is as above. To be noted: source organism: Bacillus anthracis str. A0488.
Test [1] concerns the target HLA-A*11:01. Described as above. To be noted: source organism: Bacillus anthracis str. A0488.
Test [2] concerns the target HLA-A*68:02. The description is as above. The note with it: source organism: Bacillus anthracis str. A0488.
For a further test, the target named is HLA-A*26:02. Described as above.
The target in another test is HLA-B*08:01. Kind of test: IEDB peptide-MHC binding, purified MHC/direct/fluorescence; filed as Kd, often an IC50 or EC50 that approximates it; ≥ and ≤ were set here for values at or beyond the usual limits of such assays.
The target of test [3] is HLA-B*15:01. The description is as above. The note with it: source organism: Bacillus anthracis.
Test [4] addresses HLA-B*15:17. The description is as above. The note with it: source organism: Bacillus anthracis.
The target in another test is HLA-B*48:01. Described as above.
The next test addresses HLA-B*15:02. Described as above. The note with it: source organism: Bacillus cereus 03BB108.
A further test concerns the target HLA-B*07:02. The test is described as above.
Test [5] deals with HLA-B*35:01. The description is as above. To be noted: source organism: Bacillus cereus 03BB108.
Another test concerns the target HLA-B*08:02. The test is described as above. The note with it: source organism: Bacillus cereus 03BB108.
A further test addresses HLA-B*08:03. The test is described as above.
In another test the target is HLA-A*02:11. The test is described as above. The note with it: source organism: Bacillus cereus 03BB108.
For a further test, the target named is HLA-B*58:01. The test is described as above.
Another test addresses HLA-A*02:12. The description is as above. The note with it: source organism: Bacillus cereus 03BB108.
Another test deals with HLA-B*46:01. The description is as above.
The target in the next test is HLA-A*02:19. The test is described as above. To be noted: source organism: Bacillus cereus 03BB108.
In test [6] the target is HLA-A*01:01. The description is as above.
Test [7] has as its target HLA-A*03:01. The description is as above.
In another test the target is HLA-A*69:01. The description is as above.
The target in test [8] is HLA-A*26:03. Described as above. The note with it: source organism: Bacillus cereus 03BB108.
Another test deals with HLA-B*27:05. The test is described as above.
In test [9] the target is HLA-A*02:01. The test is described as above.
In a further test the target is HLA-B*57:01. The test is described as above.
Test [10] deals with HLA-B*15:01. In words: IEDB peptide-MHC binding, purified MHC/competitive/fluorescence; filed as Kd, often an IC50 or EC50 that approximates it; ≥ and ≤ were set here for values at or beyond the usual limits of such assays. The note with it: source organism: Vaccinia virus WR.
The target of test [11] is HLA-B*15:17. Described as above. The note with it: source organism: Vaccinia virus WR.
A further test concerns the target HLA-A*26:01. The description is as above. To be noted: source organism: Vaccinia virus WR.
Test [12] concerns the target HLA-B*35:01. The test is described as above. To be noted: source organism: Vaccinia virus WR.
Test [13] concerns the target HLA-A*26:03. The description is as above. The note with it: source organism: Vaccinia virus WR.
A further test concerns the target HLA-B*40:01. Kind of test: IEDB peptide-MHC binding, purified MHC/direct/fluorescence; filed as Kd, often an IC50 or EC50 that approximates it; ≥ and ≤ were set here for values at or beyond the usual limits of such assays. The note with it: source organism: Camelpox virus M-96.
The next test has as its target HLA-A*31:01. Described as above. The note with it: source organism: Camelpox virus M-96.
The target in test [14] is HLA-A*11:01. The description is as above. To be noted: source organism: Camelpox virus M-96.
A further test concerns the target HLA-A*80:01. Described as above. The note with it: source organism: Camelpox virus M-96.
Test [15] deals with HLA-A*68:02. The description is as above. To be noted: source organism: Camelpox virus M-96.
Test [16] has as its target HLA-B*15:01. In words: IEDB peptide-MHC binding, purified MHC/competitive/fluorescence; ≥ and ≤ were set here for values at or beyond the usual limits of such assays. The note with it: source organism: Vaccinia virus WR.
In test [17] the target is HLA-A*11:01. Described as above. The note with it: source organism: Vaccinia virus WR.
For test [18], the target named is HLA-A*01:01. Described as above. The note with it: source organism: Vaccinia virus WR.
Test [19] addresses HLA-A*03:01. The test is described as above. The note with it: source organism: Vaccinia virus WR.
The target of another test is HLA-A*24:02. The test is described as above. The note with it: source organism: Vaccinia virus WR.
Test [20] deals with HLA-A*02:01. The description is as above. The note with it: source organism: Vaccinia virus WR.
[21] abbreviates: source organism: Bacillus cereus 03BB108.
Where [22] appears, read: source organism: Bacillus anthracis.
[23] abbreviates: source organism: Camelpox virus M-96.

Take RVRSMANVY: the Kd in the test with HLA-B*45:06 is at least 5 µM; with HLA-A*32:07, 0.0157 µM; in the test with HLA-A*29:02, 0.0151 µM; with HLA-B*15:42 it was at least 5 µM; with HLA-B*83:01, at least 5 µM.

Turning to KVQEWYLSY, the Kd with HLA-B*15:09 is at least 20 µM; in the test with HLA-B*39:01, 0.0869 µM; with HLA-A*11:01 [1], 0.0422 µM; in the test with HLA-A*68:02 [2], 3.4 µM; in the test with HLA-A*26:02 (source organism: Bacillus anthracis str. A0488) it was 1.21 µM; with HLA-B*08:01 (setting [21]), at least 20 µM. Moreover, the Kd in the test with HLA-B*15:01 [3] is 0.443 µM; in the test with HLA-B*15:17 [4] it was 0.121 µM; with HLA-B*48:01 (setting [22]), at least 20 µM; with HLA-B*15:02, 1.48 µM; in the test with HLA-B*07:02 (setting [22]), 5.54 µM; with HLA-B*35:01 [5], 2.06 µM. The Kd in the test with HLA-B*08:02 is at least 20 µM; with HLA-B*08:03 (setting [21]), 0.324 µM; with HLA-A*02:11, 0.308 µM; in the test with HLA-B*58:01 (setting [22]) it was 3.62 µM; with HLA-A*02:12, 1.63 µM; with HLA-B*46:01 (setting [22]), at least 20 µM. Further, the Kd with HLA-A*02:19 was at least 20 µM; in the test with HLA-A*01:01 [6] (setting [22]), at least 5 µM; in the test with HLA-A*03:01 [7] (setting [22]) it was 0.132 µM; with HLA-A*69:01 (setting [22]) it was 15 µM; in the test with HLA-A*26:03 [8] it was at least 20 µM; with HLA-B*27:05 (setting [22]), 0.0517 µM. For the same sequence, the figures for the Kd with HLA-A*02:01 [9] (setting [22]) and with HLA-B*57:01 (setting [22]) were 14.3 µM and at least 20 µM, respectively.

As for SLFTEQAFY, the Kd with HLA-B*15:01 [10] was 0.959 µM; in the test with HLA-B*15:17 [11] it was at least 20 µM; in the test with HLA-A*26:01, at least 5 µM; in the test with HLA-B*35:01 [12], 1.15 µM; in the test with HLA-A*26:03 [13], at least 20 µM; with HLA-A*26:02 (source organism: Vaccinia virus WR), at least 20 µM. The equilibrium dissociation constant (Kd) was at least 20 µM with HLA-B*08:01 (source organism: Variola virus); at least 20 µM with HLA-B*40:01; at least 20 µM in the test with HLA-A*31:01; at least 20 µM with HLA-B*48:01 (setting [23]); at least 20 µM in the test with HLA-B*07:02 (setting [23]); 1.11 µM with HLA-A*11:01 [14]. For the same sequence, the Kd in the test with HLA-B*08:03 (source organism: Variola virus) was at least 20 µM; with HLA-A*80:01 it was 0.0086 µM; with HLA-B*58:01 (source organism: Variola virus), at least 20 µM; in the test with HLA-B*46:01 (setting [23]), at least 20 µM; with HLA-A*01:01 [6] (setting [23]) it was at least 20 µM; with HLA-A*03:01 [7] (setting [23]), 4.41 µM. Besides, the Kd with HLA-A*68:02 [15], with HLA-A*69:01 (setting [23]), with HLA-B*27:05 (setting [23]), with HLA-A*02:01 [9] (setting [23]) and in the test with HLA-B*57:01 (setting [23]) was at least 20 µM in each case. Moreover, the IC50 is 3.93 µM with HLA-B*15:01 [16]; 7.85 µM in the test with HLA-A*11:01 [17]; 32 µM with HLA-A*01:01 [18]; 7.04 µM with HLA-A*03:01 [19]; 31.2 µM with HLA-A*24:02; 15 µM in the test with HLA-A*02:01 [20].
